Assay results: paper PMC6666309 (Biochemistry, 2019)

B1: pro-cathepsin D (enzyme)
chain: not shown
modifications: fluorescently labelled in the MST assay (dye and site not stated)
B2: full-length progranulin (natural protein, human, UniProt P28799 18-593, looked up)
chain: TRCPDGQFCPVACCLDPGGASYSCCRPLLDKWPTTLSRHLGGPCQVDAHCSAGHSCIFTVSGTSSCCPFPEAVACGDGHHCCPRGFHCSADGRSCFQRSGNNSVGAIQCPDSQFECPDFSTCCVMVDGSWGCCPMPQASCCEDRVHCCPHGAFCDLVHTRCITPTGTHPLAKKLPAQRTNRAVALSSSVMCPDARSRCPDGSTCCELPSGKYGCCPMPNATCCSDHLHCCPQDTVCDLIQSKCLSKENATTDLLTKLPAHTVGDVKCDMEVSCPDGYTCCRLQSGAWGCCPFTQAVCCEDHIHCCPAGFTCDTQKGTCEQGPHQVPWMEKAPAHLSLPDPQALKRDVPCDNVSSCPSSDTCCQLTSGEWGCCPIPEAVCCSDHQHCCPQGYTCVAEGQCQRGSEIVAGLEKMPARRASLSHPRDIGCDQHTSCPVGQTCCPSLGGSWACCQLPHAVCCEDRQHCCPAGYTCNVKARSCEKEVVSAQPATFLARSPHVGVKDVECGEGHFCHDNQTCCRDNRQGWACCPYRQGVCCADRRHCCPAGFRCAARGTKCLRREAPRWDAPLRDPALRQLL

Key:
full-length progranulin = target: B2; assay: MST
pro-cathepsin D = target: B1; assay: cell-based or functional assay
Sequence of pro-cathepsin D (P07339 21-412): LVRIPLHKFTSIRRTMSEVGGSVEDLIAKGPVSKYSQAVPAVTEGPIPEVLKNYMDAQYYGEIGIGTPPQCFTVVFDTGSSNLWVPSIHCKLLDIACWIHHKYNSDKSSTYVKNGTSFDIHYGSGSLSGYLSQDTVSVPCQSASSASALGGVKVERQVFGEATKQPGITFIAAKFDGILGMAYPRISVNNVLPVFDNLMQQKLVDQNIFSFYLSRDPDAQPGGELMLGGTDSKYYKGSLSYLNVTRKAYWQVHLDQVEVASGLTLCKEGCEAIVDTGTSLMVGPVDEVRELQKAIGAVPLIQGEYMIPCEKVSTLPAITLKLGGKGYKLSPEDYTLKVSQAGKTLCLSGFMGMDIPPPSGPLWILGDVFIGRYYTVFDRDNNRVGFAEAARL

Kd (full-length progranulin)	Binder	DSF - ΔTm of proCTSD (1 μM proCTSD with 2 μM PGRN, pH 7.4) (pro-cathepsin D)
950 nM	B1	–
–	B2	-0.41 °C
